According to the supplement of paper PMC10567573:

B1: HESX1 (parent)
chain: ENKPSTCSFSIERILGLDQKKDCV

Variants of: B1
Experiment: protein stability index of a GFP-peptide fusion (GPS, HEK-293T) (PSI 1-6); higher = more stable
Settings: c terminus: a fixed tail appended
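Further: lentivirally expressed fusions sorted by FACS into six bins by GFP to DsRed ratio, PSI derived from sequencing read proportions per bin multiplied by bin number.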

Protein stability index: each site, then its substitutions
L17: T 3.78, E 4.25, V 4.2, Y 2.56, C 3.22, Q 3.59, G 3.83, P 4.69, N 4.42, H 3.53, F 2.91, A 4, W 2.82, K 4.04, I 3.31, S 3.86, M 2.11, D 4.4
D18: E 3.4, K 2.79, S 3.13, L 2.12, F 1.85, I 1.74, H 3, G 2.55, N 2.62, P 2.71, A 2.94, C 2.85, R 2.76, Q 2.89, T 2.77, V 1.8, W 2.32, M 2.23, Y 2.14
I14: F 3.8, Y 3.75, S 4.52, G 4.09, A 4.54, E 4.88, D 4.11, W 3.38, C 3.97, Q 4.12, H 4.1, V 3.39, N 3.83, L 3.11, M 3.15, T 4.16, R 3.97, P 4.34, K 4.31
Q19: Y 1.97, T 2.88, S 2.79, I 2.39, F 2.12, N 2.64, W 1.35, D 3.34, M 2.6, P 3.14, G 3.06, L 2.62, C 2.67, V 2.71, K 2.94, E 3.23, A 2.33, R 3.2, H 2.47
E12: W 1.48, S 2.84, V 1.64, T 2.94, Y 1.9
G16: N 3.41, Y 2.28, V 3.15, E 3.27, K 2.9, P 3.75, F 2.49, W 2.32, I 2.63, R 2.23, S 3.28, A 3.2, M 2.92, C 2.83, Q 3.76, D 3.74, T 3.69, H 2.83, L 2.43
L15: Y 2.38, K 4.23, Q 2.69, V 4.16, M 2.12, D 4.06, S 3.5, H 3.13, F 2.53, R 3.61, C 2.63, G 3.27, T 4, W 2.46, N 3.73, P 3.44, E 4.11, A 3.14, I 2.96
R13: P 4.41, I 1.82, C 2.6, V 2.12, M 1.9, L 2.27, F 1.48, S 3.24, G 3.78, A 3.18, D 3.9, Y 2.08, E 3.46, W 1.75, N 3.96, T 3.35, Q 2.68, K 2.33, H 3.31
K20: L 1.93, H 2.47, A 2.45, S 2.69, T 2.53, P 2.75, I 2.13, Y 1.97, D 3.27, F 2.22, W 1.62, M 2.67, E 3.08, N 2.71, C 2.52, V 2.25, Q 2.56, R 2.41
K21: C 2.11, E 3.4, M 2.05, G 2.86, A 2.41, F 2.35, N 2.62, I 1.9, D 3.16, H 2.35, P 2.67, L 2.27
